The results in this text go back to the DeepSol protein solubility set.

This data set in a line: soluble on expression in E. coli; label from the status in PepcDB or PDB records.
For the sequence “MYYERPVFDIVDTWEIREREVLKPVLSVAEEDYCYFVQNTVASAQRSWVDLVANLFNSPDSDIDDALNRFADAPCLHGPTLEPMNLILKGSPMYVYCSFEEMRSCATKRFYEGISNRGVVICTVPPYAEGVTRDDMSVWQNQACVNTCSGKNDLDAYIAFLPTSSLQESSYWHTKNGIYSFLAPSQTDAFCCEILCVGRALFEDRSRKEKLRNCLLKLLNYRLKLLFAAALEHHHHHH”, the “soluble on expression in E. coli” value is “not soluble”. With “NAAQALVNVQTSVIPKTAFAARDFVDYSFPQEQKDKEKRKQQWVKNSHTKNSDVQPFAEFAILEIPLFSKSKVDRKIFNHFIQPAIRTYKQLGDSLNIFANPTLDQLKQNRYYVLGYPFLKNKVSSLFLNQTGKKKGIFRRKYTNIPWKTSYYLN”, the “soluble on expression in E. coli” value is “not soluble”. The result for “NCCVKGNSIYPQKTSTKQTGLMLDIARHFYSPEVIKSFIDTISLSGGNFLHLHFSDHENYAIESHLLNQRAENAVQGKDGIYINPYTGKPFLSYRQLDDIKAYAKAKGIELIPELDSPNHMTAIFKLVQKDRGVKYLQGLKSRQVDDEIDITNADSITFMQSLMSEVIDIFGDTSQHFHIGGDEFGYSVESNHEFITYANKLSYFLEKKGLKTRMWNDGLIKNTFEQINPNIEITYWSYDGDTQDKNEAAERRDMRVSLPELLAKGFTVLNYNSYYLYIVPKASPTFSQDAAFAAKDVIKNWDLGVWDGRNTKNRVQNTHEIAGAALSIWGEDAKALKDETIQKNTKSLLEAVIHKTNGDEHHHHHH” reads “soluble”; that for “NDSPFYVNPNMSSAEWVRNNPNDPRTPVIRDRIASVPQGTWFAHHNPGQITGQVDALMSAAQAAGKIPILVVSNAPGRDCGNHSSGGAPSHSAYRSWIDEFAAGLKNRPAYIIVEPDLISLMSSCMQHVQQEVLETMAYAGKALKAGSSQARIYFDAGHSAWHSPAQMASWLQQADISNSAHGIATNTSNYRWTADEVAYAKAVLSAIGNPSLRAVIDTSRNGNGPAGNEWCDPSGRAIGTPSTTNTGDPMIDAFLWIKLPGEADGCIAGAGQFVPQAAYEMAIAA”, “soluble”; that for “NFVAPQDRIATFDNDGTLWSEKPMYFQILFMLDQIKEQAASHPDWKTTKPYSLVLSGQIDKLSLEDVLTMVQKTHSGMSSDEFTSIVQAWISTAKHPATGRPYTDMVYQPMLELLDYLDSNGFKNFIVSGGGNAFMRAWATDVYNIPSERIIGTRLSTEFVNVDGSYQVKRVPGIEVNNDKAEKPQQIYQHIGKRPIASFGNSDGDLQMLQWTTSGT”, “not soluble”.

In the case of “NGSKTDLGLLSKNSADFLGSSKRSLAGFDTPFSPDNLQYLEKETDYDQNFKSFTEKFKDEKITNNQLGIVDIYNLFSGFHKSVKSTVDLMNQLQKQVEAANAIFPVDDAFVKLPKVPTELFKLVDDNVFPKLNPKGLNISDNIAALFERYNLKSIELKNFDLAFLRKADVIIKDKVRYNFEM”, the “soluble on expression in E. coli” value was “not soluble”. Then “NIDLDIHARENIANITNAMIELVSQDCHWLKVWFEWSASTRDEVWPLFVSTNRTNQLLVQNMFIKAIERGEVCDQHDSEHLANLFHGICYSLFVQANRFKGEAELKELVSAYLDMLCIYNREH”, with “not soluble”. Then “NIKNILSERVSAAMVAAGLPEGTNPAISLSNRPQFGDYQANGVMGAAKKLKTNPRELATKVVAELDLDGIASKIELAGPGFINIHLDESWLAAQLNEVAQDDFIGVAQRGTT”, with “not soluble”; and “NLVNFHRMIKLTTGKEAALSYGFYGCHCGVGGRGSPKDATDRCCVTHDCCYKRLEKRGCGTKFLSYKFSNSGSRITCAKQDSCRSQLCECDKAAATCFARNKTTYNKKYQYYSNKHCRGSTPRC”, with “soluble”. As for “NRFIGYIQVACCCLLLCASCVRDGMDEDCNSYVRFVYDYNLEYIDLFHKQATKMNLYVFDEKGVFVTELKEESGAFAPDYLMTLPGAMAGRRYIFVAWSGLYGESYDKVTLTPGVSTLEDLEVSVNNLKTRIGGGVVDRELHLLWHGKQTEVSPQYNNDITTVSLLKNTKKFRIIMQMLDDSSIHVDDYDFRIISPNGRYNHENGLLGDETDEKVEYTAYHTEDDPETGAIAELNTLRLMTDTENRLVITHKSSGNVILDIPLNKYLNALRLQQYADIPLQEYLDRADKHGIILFFKGMDGNGNYISVDVQINGWLIRKQEVD”, the “soluble on expression in E. coli” value is on record as “not soluble”.

In the case of “NVAGEEAVREYKKGDEISAVVLAVDAERERISLGIKQMENDPFNAYVADNKKGTLVNATVTAVDAKGATVEIAEGVEGYIRASEVSRDRVEDASLILSAGDVVEAKFTGVDRKNRVINLSIKAKDEAEEQEAMASINKQDEAAFGNAMADAFKAAKGE”, the “soluble on expression in E. coli” value is “not soluble”.

With “NVRVITDENWRELLEGDWMIEFYAPWCPACQNLQPEWESFAEWGEDLEVNIAKVDVTEQPGLSGRFIINALPTIYHCKDGEFRRYQGPRTKKDFINFISDKEWKSIEPVSSWF”, the “soluble on expression in E. coli” value is recorded as “soluble”. Then “PAFALTSPWAGSDAAAIPDHGTVCKGQWQGQEVLGMRVTWDKRYITLAPVCTLLGLAFRLYDPDGLLGGRKDLGITCALVPHDHPGVDTGRRHFPLNAMFMNGPTRGTDVFMPLEFIIDG”, with “not soluble”. For “PAQDNSRFVIRDRNWHPKALTPDYKTSIARSPRQALVSIPQSISETTGPNFSHLGFGAHDHDLLLNFNNGGLPIGERIIVAGRVVDQYGKPVPNTLVEMWQANAGGRHRHKNDRYLAPLDPNFGGVGRCLTDSDGYYSFRTIKPGPYPWRNGPNDWRPAHIHFGISGPSIATKLITQLYFEGDPLIPMCPIVKSIANPEAVQQLIAKLDMNNANPMDCLAYRFDIVLRGQRKTHFENC”, the “soluble on expression in E. coli” value is recorded as “soluble”. Then “PARLSTADKYTENPVSGVMAQLYSARSKNSWGMGDFNDLGLLAETLAPQADYLLINPLHAAEPMPPVEDSPYLPTTRRFINPIYIRIEDIPEHLLLDDDLQNDIAELAEKFTALNLTPEKIERNPIFDAKLQVLHAVFNVEREPAREQDFQDFIATEGQGLRDFASWCADQELAVLESSAAHAALPEKESLIQFYMWQQWICDQQLGAAQTRATD”, with “not soluble”; and “PETKTGKKILLAAPRGYCAGVDRAVETVERALEEYGAPIYVRKEIVHNRYVVDTLAEKGAIFVNEASEAPEGANMVFSAHGVSPMVHEEAAAKNIKAIDAACPLVTKVHKEVQRFDKQGFHILFIGHEGHEEVEGTMGHSVEKTHLVDGVAGIATLPEFLNDEPNLIWLSQTTLSVDETMEIVRELKVKFPQLQDPPSDDICYATQNRQVAVKAIAERCELMIVVGSRNSSNSVRLVEVAKQNGADNAYLVDYAREIDPAWFEGVETIGISSGASVPEILVQGVIERLAEFGYD”, with “not soluble”; and “PETVCWGHVEEVELINDGSGLGFGIVGGKTSGVVVRTIVPGGLADRDGRLQTGDHILKIGGTNVQGMTSEQVAQVLRNCGNSVRMLVARDPAGDISVT”, with “soluble”. Turning to “PFEIVFEGAKEFAQLIDTASKLIDEAAFKVTEDGISMRAMDPSRVVLIDLNLPSSIFSKYEVVEPETIGVNLDHLKKILKRGKAKDTLILKKGEENFLEITIQGTATRTFRVPLIDVEEMEVDLPELPFTAKVVVLGEVLKAAVKAASLVSDSIKFIARENEFIMKAEGETQEVEIKLTLEDEGLLDIEVQEETKSAYGVSYLSDMVKGLGKADEVTIKFGNEMPMQMEYYIRDEGRLTFLLAPRVEE”, the “soluble on expression in E. coli” value is “soluble”. The result for “PFKEVSPNSFLLDDSHALSQLLKKSYRWYSPVFSPRNVPRFADVSSITESPETLKAIRDFLVQRYRAMSPAPTHILGFDARGFLFGPMIAVELEIPFVLMRKADKNAGLLIRSEPYEKEYKEAAPEVMTIRYGSIGKGSRVVLIDDVLATGGTALSGLQLVEASDAVVVEMVSILSIPFLKAAEKIHSTANSRYKDIKFISLLSDDALTEENCGDSKNYTGPRVLSCGDVLAEHPH” reads “soluble”; that for “PHMSGLKKFFPYSTNVLKGAAADIALPSLAGKTVFFYFSASWCPPCRAFTPQLIDFYKAHAESKNFEVMLISWDESAEDFKDYYAKMPWLALPFEDRKGMEFLTTGFDVKSIPTLVGVEADSGNIITTQARTMVVKDPEAKDFPWPNVEAKK”, “soluble”.
